The values below come from US20180155451A1 (published 2018).

Usually Kd stands for the constant that tells how readily two partners part at equilibrium. A high value points to weaker binding.

Holding throughout (assay): SPR (Biacore), antibody captured on chip, soluble FcgR as analyte; experiment 2
Experiment [1] deals with T1, FcγRIa extracellular domain with C-terminal His tag (human, UniProt P12314 16-292).
T1 construct: extracellular domain; also called FcgRI; FcgRIa; not shown: His tag at the C terminus
T1 sequence (P12314 16-292): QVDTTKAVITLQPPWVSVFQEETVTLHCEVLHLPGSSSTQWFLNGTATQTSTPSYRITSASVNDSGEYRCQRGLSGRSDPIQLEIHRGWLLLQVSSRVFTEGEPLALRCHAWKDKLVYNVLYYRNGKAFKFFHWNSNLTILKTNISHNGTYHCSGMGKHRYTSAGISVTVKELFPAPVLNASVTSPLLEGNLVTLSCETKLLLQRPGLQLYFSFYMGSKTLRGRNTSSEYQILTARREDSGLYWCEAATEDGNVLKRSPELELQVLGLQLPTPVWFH
On the procedure:
(§1) Antibodies of interest were analyzed for the interaction to FcgR according to the method described in Reference Example 8.
(§2) Analysis of interaction between obj ective antibody and the FcγR was carried out using Biacore T100 (GE Healthcare), Biacore T200, Biacore A100, and Biacore 4000. HBS-EP+ (GE Healthcare) was used as the running buffer, and the measurement temperature was set to 25° C. Chips produced by immobilizing the antigen peptide by the amine coupling method to a Series S sensor Chip CM5 (GE Healthcare), chips produced by allowing preliminarily biotinylated antigen peptides to interact with and immobilize onto a Series S Sensor Chip SA (certified) (GE Healthcare), chips produced by immobilizing Protein L (ACTIGEN, BioVision) to Series S Sencor Chip CM5 (GE Healthcare), or chips produced by immobilizing Protein A/G (Thermo Scientific) to Series S Sencor Chip CM5 (GE Healthcare) were used. Antibodies of interest were captured onto these chips, and allowed to interact to each FcγR diluted with running buffer. To regenerate and repeatedly use the chip, the antibodies captured onto the chip were washed off by reacting 10 mM glycine-HCl, pH 1.5.

For experiment [2], the target named is T2, FcγRIIa R type extracellular domain with C-terminal His tag (human, UniProt P12318 34-217).
T2 construct: extracellular domain; also called FcgRIIa R; FcgRIIaR; not shown: His tag at the C terminus
T2 sequence (looked up): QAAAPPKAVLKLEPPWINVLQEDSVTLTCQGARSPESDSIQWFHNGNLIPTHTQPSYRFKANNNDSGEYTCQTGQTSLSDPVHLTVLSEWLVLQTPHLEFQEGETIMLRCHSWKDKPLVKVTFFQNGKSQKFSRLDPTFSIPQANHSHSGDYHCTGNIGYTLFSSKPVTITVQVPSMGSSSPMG
The method, then:
as §1, §2

The target in experiment [3] is T3, FcγRIIa H type extracellular domain with C-terminal His tag (human, UniProt P12318 34-217).
T3 construct: extracellular domain; also called FcgRIIa H; FcgRIIaH; not shown: His tag at the C terminus
T3 sequence (looked up): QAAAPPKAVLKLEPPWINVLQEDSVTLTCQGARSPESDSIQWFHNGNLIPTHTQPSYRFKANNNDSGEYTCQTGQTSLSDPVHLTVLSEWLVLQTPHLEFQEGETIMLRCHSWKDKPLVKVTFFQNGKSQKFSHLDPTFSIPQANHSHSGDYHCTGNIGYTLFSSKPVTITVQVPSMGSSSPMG
On the procedure:
as §1, §2

Experiment [4] deals with T4, FcγRIIb extracellular domain with C-terminal His tag (human, UniProt P31994 43-217).
T4 construct: extracellular domain; also called FcgRIIb; 2b; not shown: His tag at the C terminus
T4 sequence (looked up): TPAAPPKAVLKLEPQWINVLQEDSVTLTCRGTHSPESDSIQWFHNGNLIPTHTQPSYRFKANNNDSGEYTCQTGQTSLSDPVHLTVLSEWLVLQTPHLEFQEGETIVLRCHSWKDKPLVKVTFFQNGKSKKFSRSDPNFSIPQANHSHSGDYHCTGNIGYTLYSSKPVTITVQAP
The method, then: as §1, §2

The target of experiment [5] is T5, FcγRIIIa F type extracellular domain with C-terminal His tag (human, UniProt P08637 17-208).
T5 construct: extracellular domain; also called FcgRIIIa F; FcgRIIIaF; not shown: His tag at the C terminus
T5 sequence (P08637 17-208): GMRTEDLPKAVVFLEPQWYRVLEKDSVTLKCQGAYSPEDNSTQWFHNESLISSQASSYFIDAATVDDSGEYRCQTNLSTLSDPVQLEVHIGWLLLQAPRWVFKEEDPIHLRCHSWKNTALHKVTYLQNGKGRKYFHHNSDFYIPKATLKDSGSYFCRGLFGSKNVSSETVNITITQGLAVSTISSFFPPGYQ
The method, then: as §1, §2

For experiment [6], the target named is T6, FcγRIIIa V type extracellular domain with C-terminal His tag (human, UniProt P08637 17-208).
T6 construct: extracellular domain; also called FcgRIIIa V; FcgRIIIaV; not shown: His tag at the C terminus
T6 sequence (P08637 17-208 F176V): as the sequence (P08637 17-208) above, with F160V counted along it
The method, then:
as §1, §2

B1: H240-FA009/H240-FB001/L73-k0 (antibody, human IgG1, kappa)
heavy 1: QDQLVQSGAEVKKPGASVKVSCKASGFNIKDTYIQWVRQAPGQGLEWMGRIDPLRKQTKYREKFEGRVTITADTSTNTAYMELSSLRSEDTAVYYCVRSGREFDYWGQGTLVTVSSASTKGPSVFPLAPSSKSTSGGTAALGCLVKDYFPEPVTVSWNSGALTSGVHTFPAVLQSSGLYSLSSVVTVPSSSLGTKTYICNVNHKPSNTKVDKKVEPKSCDKTHTCPPCPAPEYYWGPSVFLFPPKPKDTLMISRTPEVTCVVVDVSDEEPEVKFNWYVDGVEVHNAKTKPREEQYNATYRVVSVLTVLHQDWLNGKEYKCKVSNKALPAPIEKTISKAKGQPREPQVYTLPPSRKEMTKNQVSLTCLVKGFYPSDIAVEWESNGQPENNYKTTPPVLDSDGSFFLYSKLTVDKSRWQQGNVFSCSVMHEALHNRYTQKSLSLSP
heavy 2: QDQLVQSGAEVKKPGASVKVSCKASGFNIKDTYIQWVRQAPGQGLEWMGRIDPLRKQTKYREKFEGRVTITADTSTNTAYMELSSLRSEDTAVYYCVRSGREFDYWGQGTLVTVSSASTKGPSVFPLAPSSKSTSGGTAALGCLVKDYFPEPVTVSWNSGALTSGVHTFPAVLQSSGLYSLSSVVTVPSSSLGTQTYICNVNHKPSNTKVDKKVEPKSCDKTHTCPPCPAPELLGGPSVFLFPPKPKDTLMISRTPEVTCVVVDVSHEEPEVQFNWYVDGVEVHNAKTKPREEQYNSTYRVVSVLTVLHQDWLNGKEYKCKVSNDALPMPIEETISKAKGQPREPQVYTLPPSREEMTKNQVSLTCLVKGFYPSDIAVEWESNGQPENNYKTTPPVLDSDGSFFLYSKLTVDKSRWQQGNVFSCSVMHEALHNHYTQESLSLSP
light: DIQMTQSPSSLSASVGDRVTITCRASQDIHKYIAWYQQKPGQAPRLLIQYTSTLQPGVPSRFSGSGSGTDYTFTISSLQPEDIATYYCLQYEQLRTFGGGTKVEIKRTVAAPSVFIFPPSDEQLKSGTASVVCLLNNFYPREAKVQWKVDNALQSGNSQESVTEQDSKDSTYSLSSTLTLSKADYEKHKVYACEVTHQGLSSPVTKSFNRGEC
notes: Heterodimerized anti-EREG IgG1 antibody; A chain altered from H240-AK072, B chain altered from H240-BH076
Take B1: the Kd was determined as 0.17 nM in experiment [1]; 250 nM in experiment [2]; 69 nM in experiment [3]; 1300 nM in experiment [4]; 4.3 nM in experiment [5]; 1.1 nM in experiment [6].

B2: H240-FA009/H240-FB015/L73-k0 (antibody, human IgG1, kappa)
heavy 1: QDQLVQSGAEVKKPGASVKVSCKASGFNIKDTYIQWVRQAPGQGLEWMGRIDPLRKQTKYREKFEGRVTITADTSTNTAYMELSSLRSEDTAVYYCVRSGREFDYWGQGTLVTVSSASTKGPSVFPLAPSSKSTSGGTAALGCLVKDYFPEPVTVSWNSGALTSGVHTFPAVLQSSGLYSLSSVVTVPSSSLGTKTYICNVNHKPSNTKVDKKVEPKSCDKTHTCPPCPAPEYYWGPSVFLFPPKPKDTLMISRTPEVTCVVVDVSDEEPEVKFNWYVDGVEVHNAKTKPREEQYNATYRVVSVLTVLHQDWLNGKEYKCKVSNKALPAPIEKTISKAKGQPREPQVYTLPPSRKEMTKNQVSLTCLVKGFYPSDIAVEWESNGQPENNYKTTPPVLDSDGSFFLYSKLTVDKSRWQQGNVFSCSVMHEALHNRYTQKSLSLSP
heavy 2: QDQLVQSGAEVKKPGASVKVSCKASGFNIKDTYIQWVRQAPGQGLEWMGRIDPLRKQTKYREKFEGRVTITADTSTNTAYMELSSLRSEDTAVYYCVRSGREFDYWGQGTLVTVSSASTKGPSVFPLAPSSKSTSEGTAALGCLVKDYFPEPVTVSWNSGALTSGVHTFPAVLQSSGLYSLSSVVTVPSSSLGTQTYICNVNHKPSNTKVDKKVEPKSCDKTHTCPPCPAPELLGGPSVFLFPPKPKDTLMISRTPEVTCVVVDVSHEEPEVQFNWYVDGVEVHNAKTKPREEQYNSTYRVVSVLTVLHQDWLNGKEYKCKVSNDALPMPIEETISKAKGQPREPQVYTLPPSREEMTKNQVSLTCLVKGFYPSDIAVEWESNGQPENNYKTTPPVLDSDGSFFLYSKLTVDKSRWQQGNVFSCSVMHEALHNHYTQESLSLSP
light: DIQMTQSPSSLSASVGDRVTITCRASQDIHKYIAWYQQKPGQAPRLLIQYTSTLQPGVPSRFSGSGSGTDYTFTISSLQPEDIATYYCLQYEQLRTFGGGTKVEIKRTVAAPSVFIFPPSDEQLKSGTASVVCLLNNFYPREAKVQWKVDNALQSGNSQESVTEQDSKDSTYSLSSTLTLSKADYEKHKVYACEVTHQGLSSPVTKSFNRGEC
notes: as for B1
In the case of B2, the dissociation constant Kd in experiment [1] amounted to 0.093 nM; in experiment [2] it was 330 nM; in experiment [3], 84 nM; in experiment [4], 1800 nM; in experiment [5] it was 4.2 nM; in experiment [6], 1.3 nM.
